Results: publication PMC8092405 (Proceedings of the National Academy of Sciences of the …, 2021)

B1: human CXCL13, unlabeled (ligand)
chain: VLEVYYTSLRCRCVQESSVFIPRRFIDRIQILPRGNGCPRKEIIVWKKNKSIVCVDPQAEWIQRMMEVLRKRSSSTLPVPVFKRKIP
B2: human CCL19, unlabeled (ligand)
chain: GTNDAEDCCLSVTQKPIPGYIVRNFHYLLIKDGCRVPAVVFTTLRGRQLCAPPDQPWVERIIQRLQRTSAKMKRRSS

Target: human G protein-coupled receptor 182 (GPR182) (human, UniProt O15218 1-404)
Sequence (O15218 whole entry): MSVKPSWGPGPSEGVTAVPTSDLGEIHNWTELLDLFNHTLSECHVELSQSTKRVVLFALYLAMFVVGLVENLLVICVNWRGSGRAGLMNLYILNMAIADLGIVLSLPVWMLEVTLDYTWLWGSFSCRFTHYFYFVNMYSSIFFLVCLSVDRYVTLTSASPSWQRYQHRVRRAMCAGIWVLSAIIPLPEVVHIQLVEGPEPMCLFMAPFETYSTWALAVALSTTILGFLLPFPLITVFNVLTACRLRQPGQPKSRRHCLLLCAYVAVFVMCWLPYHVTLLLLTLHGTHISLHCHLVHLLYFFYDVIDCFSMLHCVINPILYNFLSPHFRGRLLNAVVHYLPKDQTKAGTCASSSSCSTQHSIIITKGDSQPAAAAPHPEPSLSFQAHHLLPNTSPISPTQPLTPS

Binder | Ki
B1 | 9 nM
B2 | 260 nM
